Laboratory results reported in PMC6321638 (2018).

Target: ALG-2 delta3-23 (Homo sapiens, UniProt O75340, Ca2+)
Assay: ITC

Sequence of ALG-2 delta3-23 (O75340 3-23, stated change not applied): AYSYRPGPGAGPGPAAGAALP

B1: SOUL (protein)
chain: AEPLQPDPGAAEDAAAQAVETPGWKAPEDAGPQPGSYEIRHYGPAKWVSTSVESMDWDSAIQTGFTKLNSYIQGKNEKEMKIKMTAPVTSYVEPGSGPFSESTITISLYIPSEQQFDPPRPLESDVFIEDRAEMTVFVRSFDGFSSAQKNQEQLLTLASILREDGKVFDEKVYYTAGYNSPVKLLNRNNEVWLIQKNEPTKENE
For B1, the Kd was 32.4 nM.
